Assay results from the supplement of paper PMC9170038.

System: MS2 coat protein
Experiment: apparent KD of MS2 coat protein; designed switch direction (-1 OFF switch, 1 ON switch): -1; higher = weaker reporter binding
How it was run: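 Normalised cluster fluorescence was curve-fitted, and each design's median over clusters is its apparent KD. Before this, SNAP-549-labelled MS2 coat protein was titrated from 0.7 or 1.5 nM, doubling to 3 µM, over RNA switches transcribed on Illumina chips by stalled E. coli RNA polymerase. Titrations had no input, 200 uM small-molecule ligand, or an oligonucleotide input, and steps lasted 0.8–1.5 h (lowest) to 10–20 min (highest).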

[1] = Eterna round: R95, input ligand: microRNA oligo, concentration not stated
[2] = Eterna round: R95, input ligand: FMN 200 uM
[3] = Eterna round: R95, input ligand: none
[4] = input ligand: microRNA oligo, concentration not stated

With “AAGUCGACGGUGAGGAUAUUAGUUGAACGACAGAUUAAGAAGGUACAUGAGGAUCACCCAUGUGGGUAGCGUUG [Brourd's EX4 #78] (Eterna round: R97, puzzle: Brourd's mod of Exclusion 4)” the “apparent KD of MS2 coat protein” value (input ligand: FMN 200 uM) was 73.2 nM and the “apparent KD of MS2 coat protein” value (input ligand: none) was 80.9 nM.
“AAUAAAUAGGAGGAUAUCGUAUCGGAAACGAUACGAGAAGGUCUAACAUGAGGAUCACCCAUGUUCCUCAAUAA [Mat - Exclusion 6 - Eli Mod - D45] (puzzle: Exclusion 6)” was tested, and the “apparent KD of MS2 coat protein” value [1] was 39.4 nM.
With “AAUAACAAGUAAGAUCCUAACAUGAGGAUCACCCAUGUGCUCGUCUUAUAAAGUACUAUCACGAAAGUGAUAGUACA [Sensor 3, v1 - 46] (puzzle: Sensor v3, turn-off variant 1)” the “apparent KD of MS2 coat protein” value [2] was 36.5 nM, the “apparent KD of MS2 coat protein” value [1] was 153 nM and the “apparent KD of MS2 coat protein” value [3] was 43.1 nM.
In the case of “AAUAACAAGUUGAUCCUUCACAUGAGGAUCACCCAUGUGCUCGUCUUGUAAAGUACUAUCACGAAAGUGAUAGUACA (Eterna round: R97, puzzle: Sensor, turn-off variant 1)”, the “apparent KD of MS2 coat protein” value (input ligand: FMN 200 uM) is reported as 256 nM and the “apparent KD of MS2 coat protein” value (input ligand: none) is reported as 249 nM.
“AAUAACAGAGGAUAUACUAUUUUAUGUAUUUAUUAUUUUGAACAUGAGGAUCACCCAUGUAGAAGGCUGAGUAA [JMF 35] (puzzle: Exclusion 2)” was tested, and the “apparent KD of MS2 coat protein” value [1] was 25.3 nM.
For “AAUAACAGAGGAUAUACUAUUUUAUGUGUUUGUUAUUUUAAACAUGAGGAUCACCCAUGUAGAAGGCUGAAUGA [JMF 56] (puzzle: Exclusion 2)”, the “apparent KD of MS2 coat protein” value [1] was 25 nM.
In the case of “AAUAACAGGCCGAUCCUAAACAUGAGGAUCACCCAUGUGCUCGUCUUGUAAAGUACUAUCACGAAAGUGAUAGUACA [Sensor v3, turn-off variant 1 (MOD of Eli's v1-59 v.2 )] (puzzle: Sensor v3, turn-off variant 1)”, the “apparent KD of MS2 coat protein” value [2] is reported as 39.9 nM, the “apparent KD of MS2 coat protein” value [1] is reported as 419 nM and the “apparent KD of MS2 coat protein” value [3] is reported as 31.4 nM.
With “AAUAACAUGUUGAUCAAAUACAUGAGGAUCACCCAUGUAAGCUUUUUGUUCGUAGAUUAACACUAAUAAUAAUAAUA [Stov1new/2-B] (Eterna round: R97, puzzle: Sensor, turn-off variant 1)” the “apparent KD of MS2 coat protein” value (input ligand: FMN 200 uM) was 15.8 nM and the “apparent KD of MS2 coat protein” value (input ligand: none) was 16.7 nM.
In the case of “AAUAAGUAUGUGAGGAUAUUGAGGAGGAGGAGGGACAAGAAGGCACAUGAGGAUCACCCAUGUAGGAAAGGACG [JR_BMEx4_Sub002] (Eterna round: R97, puzzle: Brourd's mod of Exclusion 4)”, the “apparent KD of MS2 coat protein” value (input ligand: FMN 200 uM) is reported as 46.9 nM and the “apparent KD of MS2 coat protein” value (input ligand: none) is reported as 28 nM.
With “AAUAAGUGAGGAUAUGGAAUAAUAAAUAAAAUAAUAAAUAACCAGAAGGCACAUGAGGAUCACCCAUGUAAUAA [JMF's solution 3] (puzzle: Exclusion 4)” the “apparent KD of MS2 coat protein” value [2] was 27.4 nM, the “apparent KD of MS2 coat protein” value [1] was 23.7 nM and the “apparent KD of MS2 coat protein” value [3] was 21.4 nM.
With “AAUAAUAAGGAGGAUAUCGUAUCGGAAACGAUACGAGAAGGCCUAACAUGAGGAUCACCCAUGUUCCUCAAUAA [Fiskers Ex 6 - 2] (puzzle: Exclusion 6)” the “apparent KD of MS2 coat protein” value [2] was 1320 nM, the “apparent KD of MS2 coat protein” value [1] was 297 nM and the “apparent KD of MS2 coat protein” value [3] was 311 nM.
For “AAUAAUAAGGAGGAUAUCGUAUCGGAAACGAUACGAGAAGGCCUAACAUGAGGAUCACCCAUGUUCCUUAAUAA [Fiskers Ex 6 - 4] (puzzle: Exclusion 6)”, the “apparent KD of MS2 coat protein” value [2] was 33.3 nM, the “apparent KD of MS2 coat protein” value [1] was 22 nM and the “apparent KD of MS2 coat protein” value [3] was 18.2 nM.
“AAUAAUAAGGAGGAUAUCGUAUCGGAAACGAUACGAGAAGGUCUAACAUGAGGAUCACCCAUGUUCCUCAAAUA [Mat - Exclusion 6 - Eli Mod - D44] (puzzle: Exclusion 6)” was tested, and the “apparent KD of MS2 coat protein” value [1] was 37.1 nM.
“AAUAAUGAGUAGGAUAUCACUAGCGAUAGCUAGUGAGAAGGGCUCACAUGAGGAUCACCCAUGUGUUCCAAUAA [Mod4 Ex6/6-A4 by Brourd] (Eterna round: R97, puzzle: Exclusion 6)” was tested, and the “apparent KD of MS2 coat protein” value (input ligand: FMN 200 uM) was 88.1 nM and the “apparent KD of MS2 coat protein” value (input ligand: none) was 31.2 nM.
With “AAUACACAUGAGGAUCACCCAUGUCAGGAUAUGCGCAGACAGACAGACAGACAGACGAGCAGAAGGGAUAGGAA [Excls1-IV] (puzzle: Exclusion 1)” the “apparent KD of MS2 coat protein” value [2] was 54 nM, the “apparent KD of MS2 coat protein” value [1] was 67.5 nM and the “apparent KD of MS2 coat protein” value [3] was 49.3 nM.
For “AAUACACAUGAGGAUCACCCAUGUUAGGAUAUGAGCAGACAGACAGACAGACAGACGAUCAGAAGGAAUAGGAA [Excls1-V] (puzzle: Exclusion 1)”, the “apparent KD of MS2 coat protein” value [2] was 26.1 nM, the “apparent KD of MS2 coat protein” value [1] was 25.4 nM and the “apparent KD of MS2 coat protein” value [3] was 32.9 nM.
For “AAUAGCAAGCAAGAUCCUAACAUGAGGAUCACCCAUGUGCUCGUCUUGUAAAGUACUAUCACGAAAGUGAUAGUACA [Sensor 3, v1 - 49] (puzzle: Sensor v3, turn-off variant 1)”, the “apparent KD of MS2 coat protein” value [2] was 29.7 nM, the “apparent KD of MS2 coat protein” value [1] was 211 nM and the “apparent KD of MS2 coat protein” value [3] was 31.9 nM.
With “AAUAGCUGAGGAUAUACAUGAGGAUCACCCAUGUAUUAGUAGGCUGGGAAUAAAUCGUGUAGAAGGCAGGAUGA [Ceerge] (puzzle: Exclusion 3)” the “apparent KD of MS2 coat protein” value [1] was 16.7 nM.
In the case of “AAUAGUAAUAAGGAUAUCACUAGCCUCGGCUAGUGAGAAGGUAUUACAUGAGGAUCACCCAUGUGGUCAAUUAA [E6/4-A2] (Eterna round: R97, puzzle: Exclusion 6)”, the “apparent KD of MS2 coat protein” value (input ligand: FMN 200 uM) is reported as 1110 nM and the “apparent KD of MS2 coat protein” value (input ligand: none) is reported as 1130 nM.
In the case of “AAUCAACAUGAGGAUCACCCAUGUGAGGAUAUACGCAUGCAUGCAUGCAUGCAUGCAAGUAGAAGGCACAAUAC [Design #17] (Eterna round: R97, puzzle: Exclusion 1)”, the “apparent KD of MS2 coat protein” value (input ligand: FMN 200 uM) is reported as 42 nM and the “apparent KD of MS2 coat protein” value (input ligand: none) is reported as 27.9 nM.
In the case of “AAUCGACAUGAGGAUCACCCAUGUUAGGAUAUGCGGAAUCGGUCAAUCAAUCGAUCAAGCAGAAGGGACGGGUU [Candy Rainbow] (puzzle: Exclusion 1)”, the “apparent KD of MS2 coat protein” value [2] is reported as 29.1 nM, the “apparent KD of MS2 coat protein” value [1] is reported as 27.4 nM and the “apparent KD of MS2 coat protein” value [3] is reported as 34.2 nM.
With “AAUGACUGAGGAUAUUGUACUGCUGACAUGAGGAUCACCCAUGUAUGCUAACUCGGCCGUCGAGAAGGCAGUCAUG [BotMod 24 - Jieux - Exclusion 5] (Eterna round: R97, puzzle: Exclusion 5)” the “apparent KD of MS2 coat protein” value (input ligand: FMN 200 uM) was 18.5 nM and the “apparent KD of MS2 coat protein” value (input ligand: none) was 28 nM.
For “AAUGAUUGACGAGGAUAUUGUGUUAGAUCACGACGAGAAGGCGUCUGUCACAUGAGGAUCACCCAUGUGAGCCUUGUGGAUAGA [Ex NG1 #77] (Eterna round: R96, puzzle: Exclusion NG 1)”, the “apparent KD of MS2 coat protein” value (input ligand: FMN 200 uM) was 618 nM, the “apparent KD of MS2 coat protein” value [4] was 399 nM and the “apparent KD of MS2 coat protein” value (input ligand: none) was 378 nM.
For “AAUGCGGACAAAGGAUAUUGCGGUGACCGGCUCGGCGUACCGAGCCUACAUGAGGAUCACCCAUGUAAGAAGGUUGUCGCUAAA [Mat - Exclusion NG 2 - Mod of JL - D74] (Eterna round: R96, puzzle: Exclusion NG 2)”, the “apparent KD of MS2 coat protein” value (input ligand: FMN 200 uM) was 43.1 nM, the “apparent KD of MS2 coat protein” value [4] was 13.8 nM and the “apparent KD of MS2 coat protein” value (input ligand: none) was 17.6 nM.
In the case of “AAUGGUAAAGUCAGGAUAUACGUAAAUCGUACUAGGUAGAAGGGACAUGAGGAUCACCCAUGUAUGAUAGUAAA [Ex4 #31] (Eterna round: R97, puzzle: Brourd's mod of Exclusion 4)”, the “apparent KD of MS2 coat protein” value (input ligand: FMN 200 uM) is reported as 66 nM and the “apparent KD of MS2 coat protein” value (input ligand: none) is reported as 76 nM.
“AAUGUCUGAGGAUAUCGUUUUUUGUACAUGAGGAUCACCCAUGUCCAAUUUUGUAUAUUACGAGAAGGCAGUGGAA [JR_E5_Sub089] (Eterna round: R96, puzzle: Exclusion 5)” was tested, and the “apparent KD of MS2 coat protein” value (input ligand: FMN 200 uM) was 23.9 nM, the “apparent KD of MS2 coat protein” value [4] was 10.7 nM and the “apparent KD of MS2 coat protein” value (input ligand: none) was 15 nM.
“AAUGUCUGAGGAUAUCGUUUUUUGUACAUGAGGAUCACCCAUGUCCAAUUUUGUAUAUUACGAGAAGGCAGUGGAA [JR_E5_Sub089] (puzzle: Exclusion 5)” was tested, and the “apparent KD of MS2 coat protein” value [1] was 14.6 nM.
For “AAUUAAGCAAGCAGAUCCCACAUGAGGAUCACCCAUGUGCUCGUCUUAUAAGGUACUGUGACAAAAGUCACGGUACC [Mat - Sensor, turn-off var - Eli Mod - D73] (Eterna round: R97, puzzle: Sensor, turn-off variant 1)”, the “apparent KD of MS2 coat protein” value (input ligand: FMN 200 uM) was 108 nM and the “apparent KD of MS2 coat protein” value (input ligand: none) was 117 nM.
“AAUUAAUUAAUUAAUUAAUACAUGAGGAUCACCCAUGUAAUUUAAGAUCCUUAUACAAGCUUUGAUCUCGUCUUAUA [Stov1/5-A1] (Eterna round: R97, puzzle: Sensor, turn-off variant 1)” was tested, and the “apparent KD of MS2 coat protein” value (input ligand: FMN 200 uM) was 94.5 nM and the “apparent KD of MS2 coat protein” value (input ligand: none) was 106 nM.
With “AAUUAGCAAGCGAGAUCCCACAUGAGGAUCACCCAUGUGCUCGUCUUAUAUAAGGUACUGUACAAAAGUACGGUACC [Mat - Sensor, turn-off var - Eli Mod - D32] (Eterna round: R97, puzzle: Sensor, turn-off variant 1)” the “apparent KD of MS2 coat protein” value (input ligand: FMN 200 uM) was 14.5 nM and the “apparent KD of MS2 coat protein” value (input ligand: none) was 14.1 nM.
In the case of “AAUUAGCAAGCGAGAUCUCACAUGAGGAUCACCCAUGUGCUCGUCUUAUAAGGUACUGUGACGAAAGUCACGGUACC [Mat - Sensor, turn-off var - Eli Mod - D40] (Eterna round: R97, puzzle: Sensor, turn-off variant 1)”, the “apparent KD of MS2 coat protein” value (input ligand: FMN 200 uM) is reported as 14.8 nM and the “apparent KD of MS2 coat protein” value (input ligand: none) is reported as 15.8 nM.
For “AAUUAUUUUUGAGGAUAUGGUAGUGAAACACUACCAGAAGGCGGAAUAAACAUGAGGAUCACCCAUGUGAGCCUGAUGCUUAUG [Ex NG1 #46] (Eterna round: R96, puzzle: Exclusion NG 1)”, the “apparent KD of MS2 coat protein” value [4] was 17.9 nM.
With “AAUUCACAUGAGGAUCACCCAUGUCAGGAUAUGGUUUCACGUUUUUCUUUUCUUGAUUCCAGAAGGGACAGCUA (puzzle: Exclusion 1)” the “apparent KD of MS2 coat protein” value [1] was 58.6 nM.
In the case of “AAUUCGCAAGCGAGAUCCCACAUGAGGAUCACCCAUGUGCUCGUCUUAUAAGGUACUGUGACAAAAGUCACGGUACC [Mat - Sensor, turn-off var - Eli Mod - D84] (Eterna round: R97, puzzle: Sensor, turn-off variant 1)”, the “apparent KD of MS2 coat protein” value (input ligand: FMN 200 uM) is reported as 14.3 nM and the “apparent KD of MS2 coat protein” value (input ligand: none) is reported as 13.2 nM.
